Assay [1] concerns the target atypical protein kinase C ι (aPKCι) (Homo sapiens, UniProt P41743).
In assay [2] the target is T1, GST-PAR6 (Par6a, cds) (human, UniProt Q9NPB6 1-346).
T1 sequence (looked up): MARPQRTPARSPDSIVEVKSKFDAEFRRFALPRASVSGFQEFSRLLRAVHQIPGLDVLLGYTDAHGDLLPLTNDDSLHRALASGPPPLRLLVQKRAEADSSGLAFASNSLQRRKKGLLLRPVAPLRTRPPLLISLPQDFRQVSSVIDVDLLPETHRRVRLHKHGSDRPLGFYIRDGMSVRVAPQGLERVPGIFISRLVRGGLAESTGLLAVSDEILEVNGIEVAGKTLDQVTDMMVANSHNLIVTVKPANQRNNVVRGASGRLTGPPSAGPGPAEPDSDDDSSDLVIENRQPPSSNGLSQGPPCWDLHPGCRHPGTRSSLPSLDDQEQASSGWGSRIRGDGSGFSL
The experiment in a line: pull-down.

In general, IC50 refers to the midpoint of a concentration-inhibition curve. The low end stands for greater potency in that assay, the high end for weaker potency in that assay.

In assay [1], `O=C(O)CC([S][Au])C(=O)O` (stereo not drawn) [ATM, aurothiomalate] yielded an IC50 of 20.4 µM.

B1: HIS-aPKCι, PB1 domain of human atypical protein kinase C ι (amino acids 1–113) (domain or fragment, UniProt P41743 1-113, looked up)
chain: MPTQRDSSTMSHTVAGGGSGDHSHQVRVKAYYRGDIMITHFEPSISFEGLCNEVRDMCSFDNEQLFTMKWIDEEGDPCTVSSQLELEEAFRLYELNKDSELLIHVFPCVPERP
On to B1, for which, in assay [2], the “mean binding ratio at 10 μM ATM (0 μM ATM = 100%)” value is 63.8% and the “mean binding ratio at 50 μM ATM (0 μM ATM = 100%)” value is 32.7%.

(Values after paper PMC3973203 (Cell Death & Disease, 2014).)
